Measured values taken from US12551573B2, “Compositions and methods for the targeting of PCSK9” (Scribe Therapeutics Inc., priority 2022, dated 2026).
Like-named read-outs stand apart in the source and are kept apart here.

Test system: HBEGF locus
Assay type: cell-based, human
[1] = fold change in abundance of each repressor domain in the dXR library before vs after diphtheria toxin selection, dXR repression of the HBEGF gene, domains meeting p-value <0.01 and log2(fold change) >2
[2] = high-throughput screen of dXR repression of the HBEGF gene, abundance of each domain in the library before vs after diphtheria toxin selection, listed domains met p-value <0.01 and log2(fold change) >2
[3] = high-throughput screen of dXR repression of the HBEGF gene, change in abundance of each domain in the library before and after diphtheria toxin selection

Molecule	Log2 (fold change) [1]	further results
DOMAIN_32223 (protein, listed as Homo sapiens) GPQGARRQAFLAFGDVTVDFTQKEWRLLSPAQRALYREVTLENYSHLVSLGILHSKPELIRRLEQGEVPWGEERRRRPGP	2.8836	
DOMAIN_32327 (protein, listed as Homo sapiens) NMSQASVSFQDVTVEFTREEWQHLGPVERTLYRDVMLENYSHLISVGYCITKPKVISKLEKGEEPWSLEDEFLNQRYPGY	3.1024	
DOMAIN_26305 (protein, listed as Geotrypetes seraphini) QQMQVTFEDVAVSFSQEEWEYLDEGQKELYREVMKENYETVVSLGSPASTPKIISCIECGEEAYIRGEPGSEGRETGKSSC		Log2 (fold change) [2]: 3.0107
DOMAIN_26180 (protein, listed as Geotrypetes seraphini) QMPVKFEDIAVSFSQEEWEYLNEEQKELYREVMEENYQTLISLGIGSPSVTPDIISHIEGGEEPYIREEPGSEEREPGRSS		Log2 (fold change) [2]: 3.4522
DOMAIN_26306 (protein, listed as Geotrypetes seraphini) QMPIKFEDIAVSFSQEEWEYLNEEQKELYREVMKENYQTLISLGTGSPPVTPDIISHIERGEEPYIREEPGSEEREPGRSS		Log2 (fold change) [2]: 2.6178
DOMAIN_26496 (protein, listed as Geotrypetes seraphini) QMPVKFEDIAVSFSQEEWEYLDEEQKELYREVMKENYQTLISLGTGSPSITPDIISHIERGEEPYIREEPGSEEREPGRSS	2.7991	
DOMAIN_27566 (protein, Muntiacus muntjak) QLTFEDVALSFSKEEWQIMDPNQKTLYIDVMREIYETVTSLGLKLKNDTGNDQPVSLSTSEIQPSGCKVLRKARMKVAQTT	2.7825	
DOMAIN_28158 (protein, listed as Odocoileus virginianus) QLTFEDVALSFSKEEWQIMDPNQKTLYIDVMQEIYETVTSLGLKLKNDTGNDQPVSLSTSEIQPSGCKVLRKARMKVAQTT	3.0762	
DOMAIN_26886 (protein, listed as Homo sapiens) QLQETMTFKDVEVTFSQDEWGWLDSAQRNLYRDVMLENYRNMASLVGPFTKPALISWLEAREPWGLNMQAAQPKGNPVAAP	3.3209	
DOMAIN_29434 (protein, listed as Mus caroli) MTYDDVHVNFTGEEWALLSPSQKRLYKDVMLETYRNLTAIGYNWEDHNSEHFQHSRRHGRHERRHTGEKPSVYTQCGKVFAYH	2.2707	
DOMAIN_26407 (protein, listed as Colinus virginianus) PSVPVTFRDVFVQFSRDEWALLDDEQKELHQSVMQSNYEMLMSLYCDLAKPEVSLQMERGEPCLPAEPDLQGTAVSLNPAA		Log2 (fold change) [2]: 2.9778
DOMAIN_980 (protein, Pan troglodytes) MPLKAQYQEMVTFEDVAVHFTKTEWTGLSPAQRALYRSVMLENFGNLTALGYPVPKPALISLLEGGDMAWGLEAQDDPPAE		Log2 (fold change) [3]: 2.9297
DOMAIN_3328 (protein, listed as Hylobates sp.) MGLVSFKDVAVDFTQEEWQQLDPSQRTLYRDVMLENYSHLVSMGYPVSKPDVISKLEQGEEPWIIKGDISNWIYPDEYQAD		Log2 (fold change) [3]: 2.3718
DOMAIN_737 (protein, listed as Pan paniscus) MAFEDVAVYFSQEEWGLLDTAQRALYRRVMLDNFALVASLGLSTSRPRVVIQLERGEEPWVPSGTDTTLSRTTYRRRNPGS		Log2 (fold change) [3]: 4.544
DOMAIN_26268 (protein, listed as Geotrypetes seraphini) VARMQTRVTFDDIAVSFSQEEWEYLDEGQKELYREVMEENLELLTSLGSLVAQPEQMEELYMMDHHDMGLRGTLLSLCTED		Log2 (fold change) [2]: 2.1404
DOMAIN_2499 (protein, listed as Pongo sp.) MNSEVIVDPIQGQVNFEDVFVYFSQEEWVLLDEAQRLLYRDVMLENFALMASLGHTSFMSHIGASLVMGSEPWVPDWVDMI		Log2 (fold change) [3]: 3.114
DOMAIN_29066 (protein, listed as Xenopus tropicalis) VKFDEVAVVFSEDEWNLLTDQQRGLYMEVMKENYEHLIYLGFEVPVILSLLQDGGGIGSDTVTQSKSQQVAGAEESKSSVTLEGPIPETLPS	2.6393	
DOMAIN_2629 (protein, listed as Pongo sp.) MFPPARGKELLSFEDVAMYFTREEWGHLSWGQKDLYRDVMLENYRNMVLLGFQFPKPEVICQLENWDEQWILDLPRAGNRK		Log2 (fold change) [3]: 3.092

Molecule	Log2 (fold change) [1]	further results
DOMAIN_26999 (protein, listed as Xenopus laevis) AQDPVTFDDISVYFSRDEWALLDAGQKQLYREVMAENYRALVSVGYVMEEPGLVSHIEHEQQGSPIRSRSSLHAGRHCGFI	3.4317	
DOMAIN_26925 (protein, listed as Alligator sinensis) PETVVSFEDVAVRFSPDEWHLLDDGQRRLYRDVLRENYSHVRSLGFPVPDLAVIFRMERGEEPWPPGLPAGTKSDDQEEER	3.2248	
DOMAIN_27032 (protein, listed as Alligator mississippiensis) PETVVSFEDVAVRFSPDEWHLLDDGQRRLYRDVLRENYSHVRSLGFPVPDLAVIFRMERGEEPWPPGLPAGEWPWGQGQAP	3.4805	
DOMAIN_27579 (protein, Muntiacus muntjak) SQELLTFKDISVDFTQEEWGQLAPAHRNLYREVMLENYGNLVSVAGCQLSKPSVISQLEKGEEPWMTEKEGPGDPSSDLKS	3.8878	
DOMAIN_27902 (protein, Vulpes vulpes) SQELLTFKDVSVDFTQEEWGQLSLAHRNLYREVMLENYGNLVSVAGYQLSKPSVISQLEKGQEPWMTEKKGPGDPSPDLKN	2.9068	
DOMAIN_28051 (protein, listed as Neomonachus schauinslandi) SQGLLTFKDISVDFTQEEWGQLAPAHRNLYREVMLENYGNLVSVAGYQLSKPSVISQLEKGQEPWMTEKEGPGDSSSDLKN	2.4353	
DOMAIN_28085 (protein, listed as Enhydra lutris) SQELLTFKDISVDFTQEEWGQLPLAHRNLYREVMLENYGNLVSVAGYQLSKPSVISQLEKGQEPWMTEKEVPEDPSSDLRT	2.2962	
DOMAIN_26292 (protein, listed as Geotrypetes seraphini) QMQVTFEEVAISFSQEEWEYLDEEQKELYREVMKENYQTLISLATGSPTVTPKIIAHIERGEEPYIRGEPGSEERETGNSS		Log2 (fold change) [2]: 2.4722
DOMAIN_26299 (protein, listed as Geotrypetes seraphini) QIPVIFEDIVIYFSQEEWKDLEEWQKELYKDVMKENYQTLISLGTGFPTPPPDIISHIERGEEPYIRDELESEKRETGKRG		Log2 (fold change) [2]: 2.3704
DOMAIN_28823 (protein, Microcaecilia unicolor) QVPVTFEDITVYFSREQWEYLDEGQKELYREVMKENYETLISLGTGPEGFNPEVLARIKLEEESHVWDPKEPGQKEVTRSY	2.331	
DOMAIN_2563 (protein, listed as Pongo sp.) MGPQGARRQAFLAFGDVTVDFTQKEWRLLSPTQRALYREVTLENYSHLVSLGILHSKPELIRRLEQGEAPWGEERRRRPGP		Log2 (fold change) [3]: 2.8105
DOMAIN_31935 (protein, listed as Rhinolophus ferrumequinum) EKIEDMAVSLIREEWLLDPSQKDLRRDNRTENYRNMFSLGGETRSENRELASKQVASAGVQPHGETAARCNGDVTGALEHGEARDLLGSRVERQRAN	3.5544	
DOMAIN_29900 (protein, Nomascus leucogenys) VAFEDVAVNFTQEEWALLNSSQKNLYREVMQETCRNLASVGSKWKDQNIEDHFEKPGKNIRKHMVQKLCESKEGSQYGEVVSQIPNL	2.1583	
DOMAIN_26463 (protein, listed as Pelodiscus sinensis) DSMRVTFEEVAVYFTPGQGALLGPAQRALYRDVMQENYEAVTSLGFPVPKPELIARLERGEEPWVPDLQAREEREIPRGTC	2.8812	
DOMAIN_26501 (protein, listed as Geotrypetes seraphini) AQVPVTFEDIAVYFSQEEWEDLEEQQRELYKDVMKENYETLSSLGPPAVTPDIISHIERGEEPYIRFESGPEEREIGKSSC	2.6513	
DOMAIN_2754 (protein, listed as Hylobates sp.) MAGEAEAQLDPSLQGLVMFEDVTVYFSREEWGLLNVTQKGLYRDVMLENFALVSSLGLAPSRSPVFTQLEDDEQSWVPNWV		Log2 (fold change) [3]: 3.7601
DOMAIN_31340 (protein, listed as Homo sapiens) LTFEDVAVYFSEEEWQLLNPLEKTLYNDVMQDIYETVISLGLKLKNDTGNDHPISVSTSEIQTSGCEVSKKTRMKIAQKTMGRE	2.8261	
